This assay concerns PAD2 and PAD4. Nature of the assay: Citrullination site mapping of fibrinogen and vimentin by trypsin digestion and mass spectrometry (protein-level sheet, one search over native, PAD2-cit and PAD4-cit samples). The class given is biochemical, human. The settings on record: modified residues found per protein; Deamidated [R..] = deamidated (citrullinated) arginine positions; trypsin digest, Sequest HT; not split by sample (native, PAD2-citrullinated, PAD4-citrullinated fibrinogen and vimentin). From the text: Description: Raw mass spectrometry data for proteolytic mapping of fibrinogen, vimentin, and hnRNP A2/B1 by cathepsins B, S, and H (sheets 1-6); citrullination site mapping of fibrinogen and vimentin by trypsin digestion (sheets 7-8); and the natural antigen processing assay with native, PAD2-citrullinated (PAD2-cit), and PAD4-citrullinated (PAD4-cit) fibrinogen (sheets 9-11).

The record followed here is publication PMC9958131 (Nature Communications, 2023).

B1: K7ERE3 (protein)
chain: MSLRLQSSSASYGGGFGGGSCQLGGGRGVSTCSTRFVSGGSAGGYGGGVSCGFGGGAGSGFGGGYGGGLGGGYGGGLGGGFGGGFAGGFVDFGACDGGLLTGNEKITMQNLNDRLASYLEKVRALEEANADLEVKIRDWHLKQSPASPERDYSPYYKTIEELRDKILTATIENNRVILEIDNARLAADDFRLKYENELALRQSVEADINGLRRVLDELTLSKTDLEMQIESLNEELAYMKKNHEEEMKEFSNQVVGQVNVEMDATPGIDLTRVLAEMREQYEAMAERNRRDAEEWFHTKSAELNKEVSTNTAMIQTSKTEITELRRTLQGLEIELQSQLSMKAGLENTVAETECRYALQLQQIQGLISSIEAQLSELRSEMECQNQEYKMLLDIKTRLEQEIATYRSLLEGQDAK
B1: the Modifications entry was “Deamidated [R27; R212]”.

B2: P01023 (protein)
chain: MGKNKLLHPSLVLLLLVLLPTDASVSGKPQYMVLVPSLLHTETTEKGCVLLSYLNETVTVSASLESVRGNRSLFTDLEAENDVLHCVAFAVPKSSSNEEVMFLTVQVKGPTQEFKKRTTVMVKNEDSLVFVQTDKSIYKPGQTVKFRVVSMDENFHPLNELIPLVYIQDPKGNRIAQWQSFQLEGGLKQFSFPLSSEPFQGSYKVVVQKKSGGRTEHPFTVEEFVLPKFEVQVTVPKIITILEEEMNVSVCGLYTYGKPVPGHVTVSICRKYSDASDCHGEDSQAFCEKFSGQLNSHGCFYQQVKTKVFQLKRKEYEMKLHTEAQIQEEGTVVELTGRQSSEITRTITKLSFVKVDSHFRQGIPFFGQVRLVDGKGVPIPNKVIFIRGNEANYYSNATTDEHGLVQFSINTTNVMGTSLTVRVNYKDRSPCYGYQWVSEEHEEAHHTAYLVFSPSKSFVHLEPMSHELPCGHTQTVQAHYILNGGTLLGLKKLSFYYLIM
Take B2: the Modifications result is “Deamidated [R645; R704; R715; R719; R1401; R1407]”.

B3: E7ESP9 (protein)
chain: MSYTLDSLGNPSAYRRVTETRSSFSRVSGSPSSGFRSQSWSRGSPSTVSSSYKRSMLAPRLAYSSAMLSSAESSLDFSQSSSLLNGGSGPGGDYKLSRSNEKEQLQGLNDRFAGYIEKVHYLEQQNKEIEAEIQALRQKQASHAQLGDAYDQEIRELRATLEMVNHEKAQVQLDSDHLEEDIHRLKERFEEEARLRDDTEAAIRALRKDIEEASLVKVELDKKVQSLQDEVAFLRSNHEEEVADLLAQIQASHITVERKDYLKTDISTALKEIRSQLESHSDQNMHQAEEWFKCRYAKLTEAAEQNKEAIRSAKEEIAEYRRQLQSKSIELESVRGTKESLERQLSDIEERHNHDLSSYQDTIQQLENELRGTKWEMARHLREYQDLLNVKMALDIEIAAYRKLLEGEETRFSTFAGSITGPLYTHRPPITISSKIQKPKVEAPKLKVQHKFVEEIIEETKVEDEKSEMEEALTAITEELAVSMKEEKKEAAEEKEEEPE
As to B3, the Modifications result is “Deamidated [R382]”.

B4: C9JU00 (protein)
chain: MIDAATLKSRKMLEEIMKYEASILTHDSSIRYLQEIYNSNNQKIVNLKEKVAQLEAQCQEPCKDTVQIHDITGKDCQDIANKGAKQSGLYFIKPLKANQQFLVYCEIDGSGNGWTVFQKRLDG
Consider B4, for which the Modifications entry was “Deamidated [R31]”.

B5: P02538 (protein)
chain: MASTSTTIRSHSSSRRGFSANSARLPGVSRSGFSSVSVSRSRGSGGLGGACGGAGFGSRSLYGLGGSKRISIGGGSCAISGGYGSRAGGSYGFGGAGSGFGFGGGAGIGFGLGGGAGLAGGFGGPGFPVCPPGGIQEVTVNQSLLTPLNLQIDPTIQRVRAEEREQIKTLNNKFASFIDKVRFLEQQNKVLETKWTLLQEQGTKTVRQNLEPLFEQYINNLRRQLDSIVGERGRLDSELRGMQDLVEDFKNKYEDEINKRTAAENEFVTLKKDVDAAYMNKVELQAKADTLTDEINFLRALYDAELSQMQTHISDTSVVLSMDNNRNLDLDSIIAEVKAQYEEIAQRSRAEAESWYQTKYEELQVTAGRHGDDLRNTKQEIAEINRMIQRLRSEIDHVKKQCANLQAAIADAEQRGEMALKDAKNKLEGLEDALQKAKQDLARLLKEYQELMNVKLALDVEIATYRKLLEGEECRLNGEGVGQVNISVVQSTVSSGYGGA
As for B5, the Modifications result is “Deamidated [R182; R222; R326]”.

B6: F5GXS0 (protein)
chain: MRLLWGLIWASSFFTLSLQKPRLLLFSPSVVHLGVPLSVGVQLQDVPRGQVVKGSVFLRNPSRNNVPCSPKVDFTLSSERDFALLSLQVPLKDAKSCGLHQLLRGPEVQLVAHSPWLKDSLSRTTNIQGINLLFSSRRGHLFLQTDQPIYNPGQRVRYRVFALDQKMRPSTDTITVMVENSHGLRVRKKEVYMPSSIFQDDFVIPDISEPGTWKISARFSDGLESNSSTQFEVKKYVLPNFEVKITPGKPYILTVPGHLDEMQLDIQARYIYGKPVQGVAYVRFGLLDEDGKKTFFRGLESQTKLVNGQSHISLSKAEFQDALEKLNMGITDLQGLRLYVAAAIIESPGGEMEEAELTSWYFVSSPFSLDLSKTKRHLVPGAPFLLQALVREMSGSPASGIPVKVSATVSSPGSVPEVQDIQQNTDGSGQVSIPIIIPQTISELQLSVSAGSPHPAIARLTVAAPPSGGPGFLSIERPDSRPPRVGDTLNLNLRAVGSGA
Regarding B6, the Modifications result is “Deamidated [R123; R1126]”.

B7: A0A140TA32 (protein)
chain: MRLLWGLIWASSFFTLSLQKPRLLLFSPSVVHLGVPLSVGVQLQDVPRGQVVKGSVFLRNPSRNNVPCSPKVDFTLSSERDFALLSLQVPLKDAKSCGLHQLLRGPEVQLVAHSPWLKDSLSRTTNIQGINLLFSSRRGHLFLQTDQPIYNPGQRVRYRVFALDQKMRPSTDTITVMVENSHGLRVRKKEVYMPSSIFQDDFVIPDISEPGTWKISARFSDGLESNSSTQFEVKKYVLPNFEVKITPGKPYILTVPGHLDEMQLDIQARYIYGKPVQGVAYVRFGLLDEDGKKTFFRGLESQTKLVNGQSHISLSKAEFQDALEKLNMGITDLQGLRLYVAAAIIEYPGGEMEEAELTSWYFVSSPFSLDLSKTKRHLVPGAPFLLQALVREMSGSPASGIPVKVSATVSSPGSVPEVQDIQQNTDGSGQVSIPIIIPQTISELQLSVSAGSPHPAIARLTVAAPPSGGPGFLSIERPDSRPPRVGDTLNLNLRAVGSGA
As for B7, the Modifications entry is “Deamidated [R123]”.

B8: P02533 (protein)
chain: MTTCSRQFTSSSSMKGSCGIGGGIGGGSSRISSVLAGGSCRAPSTYGGGLSVSSSRFSSGGACGLGGGYGGGFSSSSSSFGSGFGGGYGGGLGAGLGGGFGGGFAGGDGLLVGSEKVTMQNLNDRLASYLDKVRALEEANADLEVKIRDWYQRQRPAEIKDYSPYFKTIEDLRNKILTATVDNANVLLQIDNARLAADDFRTKYETELNLRMSVEADINGLRRVLDELTLARADLEMQIESLKEELAYLKKNHEEEMNALRGQVGGDVNVEMDAAPGVDLSRILNEMRDQYEKMAEKNRKDAEEWFFTKTEELNREVATNSELVQSGKSEISELRRTMQNLEIELQSQLSMKASLENSLEETKGRYCMQLAQIQEMIGSVEEQLAQLRCEMEQQNQEYKILLDVKTRLEQEIATYRRLLEGEDAHLSSSQFSSGSQSSRDVTSSSRQIRTKVMDVHDGKVVSTHEQVLRTKN
Turning to B8, the Modifications entry is “Deamidated [R125; R194; R282; R336; R439]; Met-loss+Acetyl [N-Term]”.

B9: P13647 (protein, UniProt P13647 1-590, looked up)
chain: MSRQSSVSFRSGGSRSFSTASAITPSVSRTSFTSVSRSGGGGGGGFGRVSLAGACGVGGYGSRSLYNLGGSKRISISTSGGSFRNRFGAGAGGGYGFGGGAGSGFGFGGGAGGGFGLGGGAGFGGGFGGPGFPVCPPGGIQEVTVNQSLLTPLNLQIDPSIQRVRTEEREQIKTLNNKFASFIDKVRFLEQQNKVLDTKWTLLQEQGTKTVRQNLEPLFEQYINNLRRQLDSIVGERGRLDSELRNMQDLVEDFKNKYEDEINKRTTAENEFVMLKKDVDAAYMNKVELEAKVDALMDEINFMKMFFDAELSQMQTHVSDTSVVLSMDNNRNLDLDSIIAEVKAQYEEIANRSRTEAESWYQTKYEELQQTAGRHGDDLRNTKHEISEMNRMIQRLRAEIDNVKKQCANLQNAIADAEQRGELALKDARNKLAELEEALQKAKQDMARLLREYQELMNTKLALDVEIATYRKLLEGEECRLSGEGVGPVNISVVTSSVSSGYGSGSGYGGGLGGGLGGGLGGGLAGGSSGSYYSSSSGGVGLGGGLSVGGSGFSASSGRGLGVGFGSGGGSSSSVKFVSTTSSSRKSFKS
modifications: full-length
For the molecule B9, the Modifications result was “Deamidated [R37; R73; R187; R227]”.

B10: P00488 (protein)
chain: MSETSRTAFGGRRAVPPNNSNAAEDDLPTVELQGVVPRGVNLQEFLNVTSVHLFKERWDTNKVDHHTDKYENNKLIVRRGQSFYVQIDFSRPYDPRRDLFRVEYVIGRYPQENKGTYIPVPIVSELQSGKWGAKIVMREDRSVRLSIQSSPKCIVGKFRMYVAVWTPYGVLRTSRNPETDTYILFNPWCEDDAVYLDNEKEREEYVLNDIGVIFYGEVNDIKTRSWSYGQFEDGILDTCLYVMDRAQMDLSGRGNPIKVSRVGSAMVNAKDDEGVLVGSWDNIYAYGVPPSAWTGSVDILLEYRSSENPVRYGQCWVFAGVFNTFLRCLGIPARIVTNYFSAHDNDANLQMDIFLEEDGNVNSKLTKDSVWNYHCWNEAWMTRPDLPVGFGGWQAVDSTPQENSDGMYRCGPASVQAIKHGHVCFQFDAPFVFAEVNSDLIYITAKKDGTHVVENVDATHIGKLIVTKQIGGDGMMDITDTYKFQEGQEEERLALETALM
As to B10, the Modifications result is “Deamidated [R6; R202; R675; R697]; Met-loss+Acetyl [N-Term]”.

B11: Q9Y2J8 (protein)
chain: MLRERTVRLQYGSRVEAVYVLGTYLWTDVYSAAPAGAQTFSLKHSEHVWVEVVRDGEAEEVATNGKQRWLLSPSTTLRVTMSQASTEASSDKVTVNYYDEEGSIPIDQAGLFLTAIEISLDVDADRDGVVEKNNPKKASWTWGPEGQGAILLVNCDRETPWLPKEDCRDEKVYSKEDLKDMSQMILRTKGPDRLPAGYEIVLYISMSDSDKVGVFYVENPFFGQRYIHILGRRKLYHVVKYTGGSAELLFFVEGLCFPDEGFSGLVSIHVSLLEYMAQDIPLTPIFTDTVIFRIAPWIMTPNILPPVSVFVCCMKDNYLFLKEVKNLVEKTNCELKVCFQYLNRGDRWIQDEIEFGYIEAPHKGFPVVLDSPRDGNLKDFPVKELLGPDFGYVTREPLFESVTSLDSFGNLEVSPPVTVNGKTYPLGRILIGSSFPLSGGRRMTKVVRDFLKAQQVQAPVELYSDWLTVGHVDEFMSFVPIPGTKKFLLLMASTSACYKL
Turning to B11, the Modifications entry was “Deamidated [R5; R8; R54; R68; R78; R157; R187; R193; R225; R232; R344; R347; R373; R428; R441; R442; R546; R552; R580; R582; R652; R653]”.
